Data from patent publication US20220017589A1 (BEIJING QL BIOPHARMACEUTICAL, published 2022).

T1: human GFRAL (human, UniProt Q6UXV0 19-394)
T1 sequence (looked up): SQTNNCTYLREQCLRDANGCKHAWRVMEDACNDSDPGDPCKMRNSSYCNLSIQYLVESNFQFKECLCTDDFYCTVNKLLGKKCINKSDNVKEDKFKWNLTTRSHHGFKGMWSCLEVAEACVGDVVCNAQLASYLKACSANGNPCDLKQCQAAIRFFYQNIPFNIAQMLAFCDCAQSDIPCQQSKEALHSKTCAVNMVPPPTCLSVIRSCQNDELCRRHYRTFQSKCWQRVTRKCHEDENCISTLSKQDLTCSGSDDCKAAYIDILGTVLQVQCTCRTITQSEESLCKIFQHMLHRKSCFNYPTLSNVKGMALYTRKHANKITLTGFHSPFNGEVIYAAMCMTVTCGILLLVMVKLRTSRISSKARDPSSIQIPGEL


Legend:
human GLP-1 receptor = human GLP-1 receptor (human, UniProt P43220 24-463); experiment: cell-based or functional assay
human GFRAL = biological target: T1, human GFRAL; experiment: cell-based or functional assay

Binder | GLP-1 activity (EC50, pM) (human GLP-1 receptor) [pM] | GDF15 activity (EC50, pM) (human GFRAL) [pM]
MLC006 (ligand, Moiety A (HOOC-(CH2)16-CO-gGlu-2XADO) on 36K of GLP-1 (30K of fusion polypeptide)) HGEGTFTSDVSSYLEEQAAREFIAWLVRGKGGQEPGQEPGQEPGQEPGQEPGQEPGQEPGQEPGAQPGAQPARQGDHCPLGPGRCCRLHTVRASLEDLGWADWVLSPREVQVTMCIGACPSQFRAANLHAQIKTSLHRLRPDTVPAPCCVPASYNPMVLIQRTDTGVSLQTYDDLLARDCHCI | 28.7 | 11.6
MLC007 (ligand, Moiety A (HOOC-(CH2)16-CO-gGlu-2XADO) on 1K of Linker (32K of fusion polypeptide)) HGEGTFTSDVSSYLEEQAAREFIAWLVRGGGKQEPGQEPGQEPGQEPGQEPGQEPGQEPGQEPGAQPGAQPARQGDHCPLGPGRCCRLHTVRASLEDLGWADWVLSPREVQVTMCIGACPSQFRAANLHAQIKTSLHRLRPDTVPAPCCVPASYNPMVLIQRTDTGVSLQTYDDLLARDCHCI | 5.9 | 9.5
MLC008 (ligand, Moiety A (HOOC-(CH2)16-CO-gGlu-2XADO) on 6K of Linker (37K of fusion polypeptide)) HGEGTFTSDVSSYLEEQAAREFIAWLVRGGGGQEPGKEPGQEPGQEPGQEPGQEPGQEPGQEPGAQPGAQPARQGDHCPLGPGRCCRLHTVRASLEDLGWADWVLSPREVQVTMCIGACPSQFRAANLHAQIKTSLHRLRPDTVPAPCCVPASYNPMVLIQRTDTGVSLQTYDDLLARDCHCI | 4.3 | 15.3
MLC009 (ligand, Moiety A (HOOC-(CH2)16-CO-gGlu-2XADO) on 15K of Linker (46K of fusion polypeptide)) HGEGTFTSDVSSYLEEQAAREFIAWLVRGGGGQEPGQEPGQEPGQKPGQEPGQEPGQEPGQEPGAQPGAQPARQGDHCPLGPGRCCRLHTVRASLEDLGWADWVLSPREVQVTMCIGACPSQFRAANLHAQIKTSLHRLRPDTVPAPCCVPASYNPMVLIQRTDTGVSLQTYDDLLARDCHCI | 1.8 | 24.6
MLC003 (ligand) HGEGTFTSDVSSYLEEQAAKEFIAWLVRGGGGQEPGQEPGQEPGQEPGQEPGQEPGQEPGQEPGAQPGAQPARQGDHCPLGPGRCCRLHTVRASLEDLGWADWVLSPREVQVTMCIGACPSQFRAANLHAQIKTSLHRLRPDTVPAPCCVPASYNPMVLIQRTDTGVSLQTYDDLLARDCHCI | 7.8 | 55
MLC019 (ligand) HGEGTFTSDVSSYLEEQAAKEFIAWLVRGGGGQEPGAQPGQEPGAQPGQEPGAQPGQEPGAQPGQEPGAQPGQEPGAQPGAQPGAQPGAQPGAQPGAQPGAQPGAQPGAQPARQGDHCPLGPGRCCRLHTVRASLEDLGWADWVLSPREVQVTMCIGACPSQFRAANLHAQIKTSLHRLRPDTVPAPCCVPASYNPMVLIQRTDTGVSLQTYDDLLARDCHCI | 8 | 80.5
MLC002 (ligand, Moiety A (HOOC-(CH2)16-CO-gGlu-2XADO) on 26K of GLP-1 (20K of fusion polypeptide)) HGEGTFTSDVSSYLEEQAAKEFIAWLVRGGGGQEPGQEPGQEPGQEPGQEPGQEPGQEPGQEPGAQPGAQPARQGDHCPLGPGRCCRLHTVRASLEDLGWADWVLSPREVQVTMCIGACPSQFRAANLHAQIKTSLHRLRPDTVPAPCCVPASYNPMVLIQRTDTGVSLQTYDDLLARDCHCI | 13.1 | 17.9
MLC012 (ligand, Moiety A (HOOC-(CH2)16-CO-gGlu-2XADO) on 12K of Linker (43K of fusion polypeptide)) HGEGTFTSDVSSYLEEQAAREFIAWLVRGGGGQEPGQEPGQEKGQEPGQEPGQEPGQEPGQEPGQEPGQEPARQGDHCPLGPGRCCRLHTVRASLEDLGWADWVLSPREVQVTMCIGACPSQFRAANLHAQIKTSLHRLRPDTVPAPCCVPASYNPMVLIQRTDTGVSLQTYDDLLARDCHCI | 3.5 | 32.8
MLC013 (ligand, Moiety A (HOOC-(CH2)16-CO-gGlu-2XADO) on 1K of Linker (32K of fusion polypeptide)) HGEGTFTSDVSSYLEEQAAREFIAWLVRGGGKQEPGAQPGQEPGAQPGQEPGAQPGQEPGAQPGQEPGAQPGQEPGAQPGAQPGAQPGAQPGAQPGAQPGAQPGAQPGAQPARQGDHCPLGPGRCCRLHTVRASLEDLGWADWVLSPREVQVTMCIGACPSQFRAANLHAQIKTSLHRLRPDTVPAPCCVPASYNPMVLIQRTDTGVSLQTYDDLLARDCHCI | 6.9 | 48.8

Now from value to binder:

GLP-1 activity (EC50, pM) (human GLP-1 receptor) [pM] | GDF15 activity (EC50, pM) (human GFRAL) [pM] | Binder
3.1 | 29.9 | MLC100 (ligand) HGEGTFTSDVSSYLEEQAAKEFIAWLVRGGGGQEPARQGDHCPLGPGRCCRLHTVRASLEDLGWADWVLSPREVQVTMCIGACPSQFRAANLHAQIKTSLHRLKPDTVPAPCCVPASYNPMVLIQKTDTGVSLQTYDDLLAKDCHCI
4 | 62.8 | MLC023 (ligand) HGEGTFTSDVSSYLEEQAAKEFIAWLVRGGGGQEPGQEPGQEPARQGDHCPLGPGRCCRLHTVRASLEDLGWADWVLSPREVQVTMCIGACPSQFRAANLHAQIKTSLHRLKPDTVPAPCCVPASYNPMVLIQKTDTGVSLQTYDDLLAKDCHCI
6.7 | 59.2 | MLC022 (ligand) HGEGTFTSDVSSYLEEQAAKEFIAWLVRGGGGQEPGQEPGQEPGQEPGQEPGQEPARQGDHCPLGPGRCCRLHTVRASLEDLGWADWVLSPREVQVTMCIGACPSQFRAANLHAQIKTSLHRLKPDTVPAPCCVPASYNPMVLIQKTDTGVSLQTYDDLLAKDCHCI
 | 55.9 | MLC020 (ligand) HGEGTFTSDVSSYLEEQAAKEFIAWLVRGGGGQEPGQEPGQEPGQEPGQEPGQEPGQEPGQEPGAQPGAQPARQGDHCPLGPGRCCRLHTVRASLEDLGWADWVLSPREVQVTMCIGACPSQFRAANLHAQIKTSLHRLKPDTVPAPCCVPASYNPMVLIQKTDTGVSLQTYDDLLAKDCHCI
5.7 | 67.3 | MLC021 (ligand) HGEGTFTSDVSSYLEEQAAKEFIAWLVRGGGGQEPGAQPGQEPGAQPGQEPGAQPGQEPGAQPGQEPGAQPGQEPGAQPGAQPGAQPGAQPGAQPGAQPGAQPGAQPGAQPARQGDHCPLGPGRCCRLHTVRASLEDLGWADWVLSPREVQVTMCIGACPSQFRAANLHAQIKTSLHRLKPDTVPAPCCVPASYNPMVLIQKTDTGVSLQTYDDLLAKDCHCI
1.3 | > 5000 | MLC096 (ligand) HGEGTFTSDVSSYLEEQAAKEFIAWLVRGGGGQEPGAQPGQEPGAQPGQEPGAQPGQEPGAQPGQEPGAQPGQEPGAQPGAQPGAQPGAQPGAQPGAQPGAQPGAQPGAQPARQGDHCPLGPGRCCRLHTVRASLEDLGWADWVLSPREVQVTMCIGACPSQFRAANLHAQIKTSLHRLKPDTVPAPCCVPASYNPMRLIQKTDTGVSLQTYDDLLAKDCHCI
> 900 | 32.9 | MLC097 (ligand) EGTFTSDVSSYLEEQAAKEFIAWLVRGGGGQEPGAQPGQEPGAQPGQEPGAQPGQEPGAQPGQEPGAQPGQEPGAQPGAQPGAQPGAQPGAQPGAQPGAQPGAQPGAQPARQGDHCPLGPGRCCRLHTVRASLEDLGWADWVLSPREVQVTMCIGACPSQFRAANLHAQIKTSLHRLKPDTVPAPCCVPASYNPMVLIQKTDTGVSLQTYDDLLAKDCHCI
2.5 | 29 | MLC102 (ligand) HGEGTFTSDVSSYLEEQAAKEFIAWLVRGGGGQEPGAQPGQEPGAQPGQEPGAQPGQEPGAQPGQEPGAQPGQEPGAQPGAQPGAQPGAQPGAQPGAQPGAQPGAQPGAQPGAQPGAQPGAQPGAQPGAQPGAQPGAQPGAQPGAQPGAQPARQGDHCPLGPGRCCRLHTVRASLEDLGWADWVLSPREVQVTMCIGACPSQFRAANLHAQIKTSLHRLKPDTVPAPCCVPASYNPMVLIQKTDTGVSLQTYDDLLAKDCHCI
1.8 | 39 | MLC043 (ligand, Moiety A (HOOC-(CH2)16-CO-gGlu-2XADO) on 26K of GLP-1 (20K of fusion polypeptide)) HGEGTFTSDVSSYLEEQAAKEFIAWLVRGGGGQEPGAQPGQEPGAQPGQEPGAQPGQEPGAQPGQEPGAQPGQEPGAQPGAQPGAQPGAQPARQGDHCPLGPGRCCRLHTVRASLEDLGWADWVLSPREVQVTMCIGACPSQFRAANLHAQIKTSLHRLRPDTVPAPCCVPASYNPMVLIQRTDTGVSLQTYDDLLARDCHCI
2.5 | 27.5 | MLC124 (ligand) HGEGTFTSDVSSYLEEQAAKEFIAWLVRGGGGQEPGAQPGQEPGAQPGQEPGAQPGQEPGAQPGQEPGAQPGQEPGAQPGAQPGAQPGAQPARQGDHCPLGPGRCCRLHTVRASLEDLGWADWVLSPREVQVTMCIGACPSQFRAANLHAQIKTSLHRLRPDTVPAPCCVPASYNPMVLIQRTDTGVSLQTYDDLLARDCHCI
 | 56.1 | MLC026 (ligand, Moiety A (HOOC-(CH2)16-CO-gGlu-2XADO) on 55K of Linker (86K of fusion polypeptide)) HGEGTFTSDVSSYLEEQAAREFIAWLVRGGGGAQPGAQPGAQPGAQPGAQPGAQPGAQPGAQPGAQPGAQPGQEPGQEPGQEPGQKPGQEPGQEPGQEPGQEPGAQPGAQPARQGDHCPLGPGRCCRLHTVRASLEDLGWADWVLSPREVQVTMCIGACPSQFRAANLHAQIKTSLHRLRPDTVPAPCCVPASYNPMVLIQRTDTGVSLQTYDDLLARDCHCI
 | 45.4 | MLC027 (ligand, Moiety A (HOOC-(CH2)16-CO-gGlu-2XADO) on 55K of Linker (86K of fusion polypeptide)) HGEGTFTSDVSSYLEEQAAREFIAWLVRGGGGAQPGAQPGAQPGAQPGAQPGAQPGAQPGAQPGQEPGAQPGQEPGAQPGQEPGQKPGQEPGQEPGQEPGQEPGAQPGAQPARQGDHCPLGPGRCCRLHTVRASLEDLGWADWVLSPREVQVTMCIGACPSQFRAANLHAQIKTSLHRLRPDTVPAPCCVPASYNPMVLIQRTDTGVSLQTYDDLLARDCHCI
